Sequences and labels used below:
B1: Protein PTHB1 (Homo sapiens), Q3SYG4 (parent)
chain: MSLFKARDWWSTILGDKEEFDQGCLCLANVDNSGNGQDKIIVGSFMGYLRIFSPHPAKTGDGAQAEDLLLEVDLRDPVLQVEVGKFVSGTEMLHLAVLHSRKLCVYSVSGTLGNVEHGNQCQMKLMYEHNLQRTACNMTYGSFGGVKGRDLICIQSMDGMLMVFEQESYAFGRFLPGFLLPGPLAYSSRTDSFLTVSSCQQVESYKYQVLAFATDADKRQETEQQKLGSGKRLVVDWTLNIGEQALDICIVSFNQSASSVFVLGERNFFCLKDNGQIRFMKKLDWSPSCFLPYCSVSEGTINTLIGNHNNMLHIYQDVTLKWATQLPHIPVAVRVGCLHDLKGVIVTLSDDGHLQCSYLGTDPSLFQAPNVQSRELNYDELDVEMKELQKIIKDVNKSQGVWPMTEREDDLNVSVVVSPNFDSVSQATDVEVGTDLVPSVTVKVTLQNRVILQKAKLSVYVQPPLELTCDQFTFEFMTPDLTRTVSFSVYLKRSYTPSELEGNAVVSYSRPTDRNPDGIPRVIQCKFRLPLKLICLPGQPSKTASHKITIDTNKSPVSLLSLFPGFASQSDDDQVNVMGFHFLGGARITVLASKTSQRYRIQSEQFEDLWLITNELILRLQEYFEKQGVKDFACSFSGSIPLQEYFELIDHHFELRINGEKLEELLSERAVQFRAIQRRLLARFKDKTPAPLQHLDTLLDGTYKQVIALADAVEENQGNLFQSFTRLKSATHLVILLIALWQKLSADQVAILEAAFLPLQEDTQELGWEETVDAAISHLLKTCLSKSSKEQALNLNSQLNIPKDTSQLKKHITLLCDRLSKGGRLCLSTDAAAPQTMVMPGGCTTIPESDLEERSVEQDSTELFTNHRHLTAETPRPEVSPLQGVSE
partner: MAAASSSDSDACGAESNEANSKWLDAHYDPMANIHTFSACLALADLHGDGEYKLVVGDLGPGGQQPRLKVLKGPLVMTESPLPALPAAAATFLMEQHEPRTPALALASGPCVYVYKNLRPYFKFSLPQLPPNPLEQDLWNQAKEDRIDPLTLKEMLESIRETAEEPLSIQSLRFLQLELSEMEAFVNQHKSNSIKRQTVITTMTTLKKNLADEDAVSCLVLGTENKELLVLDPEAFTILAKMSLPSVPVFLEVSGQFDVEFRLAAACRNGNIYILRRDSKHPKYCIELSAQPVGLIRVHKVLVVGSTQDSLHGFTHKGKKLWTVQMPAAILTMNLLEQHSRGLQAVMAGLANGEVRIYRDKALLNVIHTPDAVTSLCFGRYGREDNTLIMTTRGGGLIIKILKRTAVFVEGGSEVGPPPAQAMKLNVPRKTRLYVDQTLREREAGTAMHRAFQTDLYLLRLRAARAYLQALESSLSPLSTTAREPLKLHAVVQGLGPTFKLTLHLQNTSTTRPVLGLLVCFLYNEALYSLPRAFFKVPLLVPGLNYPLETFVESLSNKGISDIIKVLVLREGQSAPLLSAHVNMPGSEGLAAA

In the first test the parent is B1. The following applies: with bbs1_human BBS1, Q8NFJ9.
As to L465K, the “effect of a mutation on the interaction” value is “with no effect”.

K728A: the “effect of a mutation on the interaction” value is reported as “with no effect”.

For G579K, the “effect of a mutation on the interaction” value is reported as “with no effect”. Same read-out and setting: under I846A stands “with no effect”; under Q883A, “with no effect”; under T478E, “with no effect”. Turning to E887K, the “effect of a mutation on the interaction” value is recorded as “with no effect”.

Consider C783K, for which the “effect of a mutation on the interaction” value is “with no effect”. Consider K687E, for which the “effect of a mutation on the interaction” value is reported as “with no effect”. Regarding D700E, the “effect of a mutation on the interaction” value is “with no effect”. On the same count and under the same terms, under I519E stands “with no effect”. For P641K, the “effect of a mutation on the interaction” value is “with no effect”. The same measure, in the same setting: for S509A the value was “with no effect”. With E408A, the “effect of a mutation on the interaction” value is “with no effect”. On the same count and under the same terms, for L737E the value was “with no effect”; for Y703K, “with no effect”; for D435E, “with no effect”.

Regarding S855A, the “effect of a mutation on the interaction” value is listed as “with no effect”.

Turning to V444E, the “effect of a mutation on the interaction” value is on record as “with no effect”. For F606K, the “effect of a mutation on the interaction” value is “with no effect”. The same measure, in the same setting: under S425K stands “with no effect”; under D470E, “with no effect”; under S555E, “with no effect”. Take F580A: the “effect of a mutation on the interaction” value was “disrupting interaction strength”. F580E: the “effect of a mutation on the interaction” value was “with no effect”.

For the variant T405K, the “effect of a mutation on the interaction” value is listed as “with no effect”. With N553E, the “effect of a mutation on the interaction” value is “with no effect”. Turning to S568G, the “effect of a mutation on the interaction” value is on record as “disrupting interaction strength”.

Consider G841K, for which the “effect of a mutation on the interaction” value is “with no effect”. The same measure, in the same setting: for S603A the value was “with no effect”; for L533K, “with no effect”.

With Q627E, the “effect of a mutation on the interaction” value is “with no effect”.

Regarding G884K, the “effect of a mutation on the interaction” value is “with no effect”.

In the case of A670V, the “effect of a mutation on the interaction” value was “disrupting interaction strength”. The same measure, in the same setting: under S458K stands “with no effect”.

With D480K, the “effect of a mutation on the interaction” value is on record as “with no effect”. On the same count and under the same terms, for F684E the value was “with no effect”. As for S745E, the “effect of a mutation on the interaction” value is given as “with no effect”. Same read-out and setting: under D513E stands “with no effect”; under T428E, “with no effect”; under Q426K, “with no effect”. The same measure, in the same setting: for R483A the value was “with no effect”.

As to R483K, the “effect of a mutation on the interaction” value was “with no effect”. The same measure, in the same setting: for E625K the value was “with no effect”; for Q722A, “with no effect”. With T782A, the “effect of a mutation on the interaction” value was “with no effect”. Same read-out and setting: for E790A the value was “with no effect”; for S797K, “with no effect”. Regarding R521K, the “effect of a mutation on the interaction” value is “with no effect”. On the same count and under the same terms, under E663A stands “with no effect”; under A755K, “with no effect”; under L692R, “disrupting interaction strength”. The same measure, in the same setting: for T496K the value was “with no effect”; for L784K, “with no effect”. The same measure, in the same setting: under D410A stands “with no effect”; under S507E, “with no effect”; under F632E, “with no effect”. L766E: the “effect of a mutation on the interaction” value is listed as “with no effect”.

As for R514K, the “effect of a mutation on the interaction” value was “with no effect”. Still for that read-out and setting: for L616P the value was “disrupting interaction strength”; for V485A, “with no effect”. Regarding L642A, the “effect of a mutation on the interaction” value was “with no effect”.

As for T543A, the “effect of a mutation on the interaction” value is “with no effect”. Take N796A: the “effect of a mutation on the interaction” value is reported as “with no effect”. Turning to G433E, the “effect of a mutation on the interaction” value was “with no effect”.

In the case of V590A, the “effect of a mutation on the interaction” value is on record as “with no effect”. On the same count and under the same terms, under E654G stands “disrupting interaction strength”; under K547E, “with no effect”. Consider G502E, for which the “effect of a mutation on the interaction” value is “with no effect”. Turning to R678K, the “effect of a mutation on the interaction” value is “with no effect”. In the case of R678A, the “effect of a mutation on the interaction” value was “with no effect”. As to I776A, the “effect of a mutation on the interaction” value is on record as “with no effect”.

Consider V461A, for which the “effect of a mutation on the interaction” value was “with no effect”. For R868A, the “effect of a mutation on the interaction” value is “with no effect”. As for I649A, the “effect of a mutation on the interaction” value is recorded as “with no effect”. As for K630A, the “effect of a mutation on the interaction” value is listed as “with no effect”. Consider F421E, for which the “effect of a mutation on the interaction” value is reported as “with no effect”. As for L815K, the “effect of a mutation on the interaction” value is recorded as “with no effect”. Same read-out and setting: for L648A the value was “with no effect”; for L648K, “with no effect”. On the same count and under the same terms, for L500A the value was “with no effect”; for R818A, “with no effect”; for H546K, “with no effect”. Same read-out and setting: under P834K stands “with no effect”.

For G628K, the “effect of a mutation on the interaction” value is given as “with no effect”. R876K: the “effect of a mutation on the interaction” value is on record as “with no effect”. On the same count and under the same terms, under S541K stands “with no effect”; under T473E, “with no effect”.

For A633K, the “effect of a mutation on the interaction” value is “with no effect”. Same read-out and setting: for P520A the value was “with no effect”.

A further test covers variants of B1. Particulars: with bbs1_human BBS1, Q8NFJ9. This is another data set of the same source.
On to S745E, for which the “effect of a mutation on the interaction” value is listed as “disrupting interaction strength”.

(Values after IntAct's records for PubMed 29039417.)
